T1: Hum-Mou-CTLA-4 (human/mouse chimera)
T1 construct: Human residues on strand 1, 2, 5 and 6 and mouse residues on strand 3, 4, 7 and 8; transiently expressed on CHO-K1 cells; also called human-mouse variant; human-mouse exchange mutant
T1 chain: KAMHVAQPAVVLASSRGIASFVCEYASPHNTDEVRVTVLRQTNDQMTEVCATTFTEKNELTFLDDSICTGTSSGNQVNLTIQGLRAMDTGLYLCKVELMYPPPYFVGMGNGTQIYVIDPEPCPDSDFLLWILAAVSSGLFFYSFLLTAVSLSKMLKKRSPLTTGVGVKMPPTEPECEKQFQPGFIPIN

T2: human CTLA-4 (human, UniProt P16410 36-223)
T2 construct: Endogenous CTLA-4 of stimulated human CD3+ T cells (stained after fixation and permeabilization) and membrane CTLA-4 of the Jurkat reporter cells; also called hCTLA-4; CTLA-4 expressed on human CD3+ T cells
T2 sequence: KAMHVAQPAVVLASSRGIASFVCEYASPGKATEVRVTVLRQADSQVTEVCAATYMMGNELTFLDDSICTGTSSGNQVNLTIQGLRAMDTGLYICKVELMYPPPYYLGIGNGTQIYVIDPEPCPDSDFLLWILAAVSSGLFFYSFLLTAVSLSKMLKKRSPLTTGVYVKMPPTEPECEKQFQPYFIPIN

T3: Mou-Hum-CTLA-4 (mouse/human chimera)
T3 construct: Mouse residues on strand 1, 2, 5 and 6 and human residues on strand 3, 4, 7 and 8; transiently expressed on CHO-K1 cells; also called mouse-human variant; mouse-human exchange mutant
T3 chain: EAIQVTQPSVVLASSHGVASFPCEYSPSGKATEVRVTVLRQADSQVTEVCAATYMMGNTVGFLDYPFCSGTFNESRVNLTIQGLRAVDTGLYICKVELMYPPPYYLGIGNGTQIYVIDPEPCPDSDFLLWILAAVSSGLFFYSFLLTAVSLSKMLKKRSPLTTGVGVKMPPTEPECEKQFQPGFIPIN


Experiments:
[1] = molecular target: T4, human CTLA-4 (Y166G and Y183G) expressed on CHO-K1.hCTLA-4 cells (human, UniProt P16410 36-223); experiment: CELISA, blockade of biotinylated hCD86/Fc binding to CHO-K1.hCTLA-4 cells (Example 6)
Description: (§1) In short, CELISA for hCTLA-4 binding was performed on CHO-K1.hCTLA-4 cells. […] Once the cells were confluent culture medium was removed and cells were incubated for 1 hour with the hCTL4.27 antibodies and control antibodies (10 μg/ml and dilutions thereof) at 37° C., 5% CO₂ and 95% humidity. […] Cells were then washed with PBST followed by addition of Streptavidin-HRP conjugate on the cells, which was incubated for 1 hour at 37° C., 5% CO₂ and 95% humidity. […] Reactions were stopped with 0.5 M H₂SO₄ and absorbances were read at 450 and 610 nm. IC50 values represent the concentration at which half of the inhibition is observed.

[2] = molecular target: T4, human CTLA-4 (Y166G and Y183G) …; experiment: CELISA on CHO-K1.hCTLA-4 cells (Example 6)
Description: as §1

Hum-Mou-CTLA-4 = molecular target: T1, Hum-Mou-CTLA-4; experiment: CELISA on CHO-K1 cells transiently transfected with Hum-Mou-CTLA-4, panel Human/Mouse
Description: (§2) The cDNAs encoding these constructs (SEQ ID NO: 41 and 43, respectively) were synthesized and subcloned into the pCI-Neo vector (GeneArt). […] To this end CHO-K1 cells were transiently transfected, using Lipofectamine 2000 (Invitrogen), with the pCI-Neo vectors expressing human CTLA-4 (hCTLA-4), mouse CTLA-4 (mCTLA-4) (SEQ ID NO: 45), Hum-Mou-CTLA-4, and Mou-Hum-CTLA-4 respectively. The transfected cells were cultured at 37° C., 5% CO₂ and 95% humidity in medium (DMEM-F12 (Gibco) with 5% New Born Calf serum (Biowest) and Pen/Strep (Gibco)) until confluent. Subsequently, cells were trypsinized and seeded in tissue culture plates and cultured at 37° C., 5% CO₂ and 95% humidity in culture medium until confluent. Then, culture medium was removed and cells were incubated for 1 hour at 37° C., 5% CO₂ and 95% humidity with hCTLA-4 antibodies. Next, cells were washed with PBS/0.05% Tween (PBST) and incubated for 1 hour at 37° C., 5% CO₂ and 95% humidity with 1:2,000 goat-anti-human IgG-HRP (Jackson Immunoresearch). After that, cells were washed 3 times with PBST and anti-CTLA-4 immunoreactivity was visualized with TMB Stabilized Chromagen (Invitrogen).

[3] = molecular target: T4, human CTLA-4 (Y166G and Y183G) …; experiment: CELISA, blockade of biotinylated hCD80/Fc binding to CHO-K1.hCTLA-4 cells (Example 6)
Description: as §1

human CTLA-4 = molecular target: T2, human CTLA-4; experiment: CELISA on CHO-K1 cells transiently transfected with human CTLA-4, panel Human
Description: as §2

Mou-Hum-CTLA-4 = molecular target: T3, Mou-Hum-CTLA-4; experiment: CELISA on CHO-K1 cells transiently transfected with Mou-Hum-CTLA-4, panel Mouse/Human
Description: as §2

[4] = molecular target: T4, human CTLA-4 (Y166G and Y183G) …; experiment: CELISA on CHO-K1.hCTLA-4 cells
Description: Binding of the humanized antibodies to hCTLA-4 was studied in CELISA format. CHO-K1.hCTLA-4 cells were seeded in culture medium (DMEM-F12 (Gibco) with 10% Fetal Bovine Serum (Hyclone) and Pen/Strep (Gibco)) in tissue culture plates and cultured at 37° C., 5% CO₂ and 95% humidity until they were confluent. Subsequently, culture medium was removed and cells were incubated for 1 hour at 37° C., 5% CO₂ and 95% humidity with purified hCTLA-4 antibodies (10 μg/ml and dilutions thereof). Next, cells were washed with PBS/0.05% Tween (PBST) and incubated for 1 hour at 37° C., 5% CO₂ and 95% humidity with goat-anti-human IgG-HRP (Southern Biotechnology) or goat-anti-mouse IgG-HRP (Southern Biotechnology). Subsequently, cells were washed 3 times with PBST and anti-hCTLA-4 immunoreactivity was visualized with TMB Stabilized Chromagen (Invitrogen). Reactions were stopped with 0.5 M H₂SO₄ and absorbances were read at 450 and 610 nm.
Target sequence in this assay (P16410 36-223 Y201G/Y218G limits assumed): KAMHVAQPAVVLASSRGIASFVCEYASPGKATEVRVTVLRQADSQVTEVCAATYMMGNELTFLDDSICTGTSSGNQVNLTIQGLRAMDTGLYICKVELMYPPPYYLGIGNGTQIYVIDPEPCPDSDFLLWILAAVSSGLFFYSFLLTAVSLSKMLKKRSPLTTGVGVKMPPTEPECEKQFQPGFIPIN

[5] = molecular target: T4, human CTLA-4 (Y166G and Y183G) …; experiment: CELISA, blockade of biotinylated hCD80/Fc binding to CHO-K1.hCTLA-4 cells
Description: CHO-K1.hCTLA-4 cells were seeded in tissue culture plates and incubated at 37° C., 5% CO₂ and 95% humidity in culture medium. Once the cells were confluent culture medium was removed and cells were incubated for 1 hour with the humanized hCTL4.27 antibody variants (10 μg/ml and dilutions thereof) at 37° C., 5% CO₂ and 95% humidity. […] Cells were then washed with PBST followed by addition of Streptavidin-HRP conjugate on the cells, which was incubated for 1 hour at 37° C., 5% CO₂ and 95% humidity. […] Reactions were stopped with 0.5 M H₂SO₄ and absorbances were read at 450 and 610 nm. […] IC50 values represent the concentration at which half of the inhibition is observed.
Target sequence in this assay (P16410 36-223 Y201G/Y218G limits assumed): as above

rhCTLA-4/Fc/6His = molecular target: T5, rhCTLA-4/Fc/6His (human); experiment: BLI (Octet RED96), antibody amine-coupled to biosensor, rhCTLA-4/Fc 2.5-40 nM, 1:1 global fit
T5 construct: Bought from R&D Systems
T5 sequence (chain, as listed by the source limits assumed): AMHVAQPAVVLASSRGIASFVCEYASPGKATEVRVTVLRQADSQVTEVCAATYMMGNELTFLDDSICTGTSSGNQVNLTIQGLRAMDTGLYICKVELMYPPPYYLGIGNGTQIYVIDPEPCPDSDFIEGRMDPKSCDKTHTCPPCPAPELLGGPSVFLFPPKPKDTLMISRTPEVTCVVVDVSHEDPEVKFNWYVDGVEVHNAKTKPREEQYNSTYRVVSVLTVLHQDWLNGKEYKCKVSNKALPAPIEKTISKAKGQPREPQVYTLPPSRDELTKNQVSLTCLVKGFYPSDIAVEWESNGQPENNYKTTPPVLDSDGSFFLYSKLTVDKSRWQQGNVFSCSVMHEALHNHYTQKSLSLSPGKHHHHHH
Description: hCTLA4.27 binding kinetics and equilibrium binding constants were profiled using […] on the Octet RED96 and compared to several antibodies known in the art. […] Amine-reactive biosensors were pre-wet by immersing them in wells containing 0.1M MES pH=5.5 for 10 minutes. The biosensors were then activated using a 0.1M NHS/0.4M EDC mixture for 5 minutes. Antibodies were coupled by immersing the biosensors in a solution of 2.5 or 12 ug/mL antibody in 0.1M MES for 7.5 minutes. The biosensor surface was quenched using a solution of IM ethanolamine for 5 minutes. Biosensors were equilibrated in Octet kinetics buffer (ForteBio) for 5 minutes. Association of rhCTLA-4/Fc (R&D Systems) was observed by placing the biosensors in wells containing various rhCTLA-4/Fc concentrations (2.5-40 nM) and monitoring interferometry for 15 minutes. Dissociation was measured after transfer of the biosensors into kinetics buffer and monitoring of the interferometry signal for 45 minutes. The assay was run with a plate temperature of 30° C. The observed on and off rates (kon and kdis) were fit using a 1:1 binding global fit model comprising all concentrations tested, and the equilibrium binding constant KD was calculated.

[6] = molecular target: T4, human CTLA-4 (Y166G and Y183G) …; experiment: CELISA, blockade of biotinylated hCD80/Fc binding to CHO-K1.hCTLA-4 cells (Example 6); blockade of hCD80/Fc binding to CHO-K1.hCTLA-4 cells
Description: as §1

Binder | IC50 [1] [nM] | EC50 [2] [nM] | EC50 (read off the curve) (Hum-Mou-CTLA-4) [nM] | IC50 [3] [nM] | EC50 (read off the curve) (human CTLA-4) [nM] | binding result (Mou-Hum-CTLA-4) | EC50 [4] [nM] | IC50 [5] [nM] | Kd (rhCTLA-4/Fc/6His) [nM] | koff (rhCTLA-4/Fc/6His) [s⁻¹] | kon (rhCTLA-4/Fc/6His) [M⁻¹ s⁻¹] | IC50 [6] [nM]
hCTLA4.27A.C4 (antibody, V domains shown, Chimeric: mouse variable domains on human IgG4, kappa; also called hCTLA4.27A chimeric hIgG4) VH: QVQLQQPGAVLVRPGVSVKLSCKASGYSFTTYWMNWVKQRPGQGLEWIGMIHPSDSETSLNQAFKDKATLTIDKSSSTAYMQLSSPTSEDSAVYFCARMGRRNPYYFDYWGQGTTLTVSS VL: DIQMTQSPVSLSVSVGETVTITCRPSENLYTNLAWYQQKQGKSPQLLVYGATNLADGVPSRFSGSGSGTQYSLRINSLQSEDFGTYYCQHLWGTPFTFGSGTKLELK | 1.21 | 0.053 | ~0.08 | 1.6 | ~0.06 | no binding (tested: log nM about 1.8 (about 60 nM)) | 0.033 | 1.61 |  |  |  | 
hCTLA4.27A.C1 (antibody, V domains shown, Chimeric: mouse variable domains on human IgG1, kappa; also called hCTLA4.27A chimeric hIgG1) VH: QVQLQQPGAVLVRPGVSVKLSCKASGYSFTTYWMNWVKQRPGQGLEWIGMIHPSDSETSLNQAFKDKATLTIDKSSSTAYMQLSSPTSEDSAVYFCARMGRRNPYYFDYWGQGTTLTVSS VL: DIQMTQSPVSLSVSVGETVTITCRPSENLYTNLAWYQQKQGKSPQLLVYGATNLADGVPSRFSGSGSGTQYSLRINSLQSEDFGTYYCQHLWGTPFTFGSGTKLELK | 1.18 | 0.034 |  | 1.45 |  |  | 0.022 | 1.53 |  |  |  | 
hCTLA4.27A (antibody, V domains shown, also called mouse hCTLA4.27A; parental antibody) VH: QVQLQQPGAVLVRPGVSVKLSCKASGYSFTTYWMNWVKQRPGQGLEWIGMIHPSDSETSLNQAFKDKATLTIDKSSSTAYMQLSSPTSEDSAVYFCARMGRRNPYYFDYWGQGTTLTVSS VL: DIQMTQSPVSLSVSVGETVTITCRPSENLYTNLAWYQQKQGKSPQLLVYGATNLADGVPSRFSGSGSGTQYSLRINSLQSEDFGTYYCQHLWGTPFTFGSGTKLELK | 2.17 | 0.053 |  |  |  |  | 0.048 | 2.17 | 2 | 0.00045 | 500000 | 2.71

Reference: patent US20180037654A1 (ADURO BIOTECH HOLDINGS EUROPE B V, published 2018)
